B1: 159Q(8)L (designed binder)
chain: VSDVPRDLEVVAATPTSLLISWRHPHFPTRYYRITYGETGGNSPVQEFTVPLQPPAATISGLKPGVDYTITGYAVTMAQSGHELFTPISINYRT
notes: also called clone 159
B2: 2′A1-PR4 (designed binder)
chain: B1 chain with A56T, G72V, M77S, A78G, Q79H, S80N, G81D, E83M, F85M, T86I
notes: in vitro translated
B3: 2H10 PR3 (designed binder)
chain: B1 chain with A56T, G72V, M77L, Q79P, G81A, H82R, F85M
notes: in vitro translated
B4: 2′D5-PR4 (designed binder)
chain: B1 chain with A56T, G72V, M77V, Q79W, S80N, G81D, E83M, F85M
notes: in vitro translated
B5: 2H12 PR3 (designed binder)
chain: B1 chain with A56T, G72V, M77E, A78G, Q79Y, S80Q, G81N, F85S, T86V
notes: in vitro translated
B6: 2′G11-PR4 (designed binder)
chain: B1 chain with A56T, G72V, M77G, A78G, S80M, G81N, H82R, E83V, F85M
notes: in vitro translated
B7: 3′E8 PR4 (designed binder)
chain: EVVAATPTSLLISWRHPHFPTRYYRITYGETGGNSPVQEFTVPLQPPTATISGLKPGVDYTITVYAVTVAQNDRQLFTPISINYRT
notes: in vitro translated
B8: 4A4 PR3 (designed binder)
chain: B7 chain with R74H, Q75E
notes: in vitro translated
B9: 4C4 PR3 (designed binder)
chain: B7 chain with N72D, R74H, Q75E
notes: in vitro translated
B10: 4′G8 PR4 (designed binder)
chain: B7 chain with D73G, R74H, Q75E, F77L
notes: in vitro translated
B11: 3′D4 PR4 (designed binder)
chain: B7 chain with V69L, Q71H, Q75E, F77I
notes: in vitro translated
B12: 3′E4 PR4 (designed binder)
chain: B7 chain with A70G, Q71P, Q75E, F77I, T78V
notes: in vitro translated
B13: 4′B6 PR4 (designed binder)
chain: B7 chain with V69L, R74H, Q75E, F77I
notes: in vitro translated
B14: EGE11 (SEQ ID NO: 87) (designed binder)
chain: B7 chain with V64G, V69M, A70G, Q71K, Q75E, F77L
B15: B11 (designed binder)
chain: B7 chain with V64G, A70E, Q71R, D73G, Q75E, F77K
notes: 10Fn3 clone, Del 1-8
B16: G1 (designed binder)
chain: B7 chain with V64G, V69E, A70G, Q71R, D73G, Q75E, F77M, T78V
notes: 10Fn3 clone, Del 1-8
B17: B12 (designed binder)
chain: B7 chain with V64G, A70E, Q71R, D73G, Q75E, F77R
notes: 10Fn3 clone, Del 1-8
B18: F12 (designed binder)
chain: B7 chain with V64G, V69D, A70G, Q71R, D73G, R74H, Q75E, F77M
notes: 10Fn3 clone, Del 1-8

Numbering of substitutions follows the chain as printed.

The record followed here is patent US20120283184A1 (published 2012).

T2 sequence (P35968 20-764 limits assumed, change not shown, form in doubt): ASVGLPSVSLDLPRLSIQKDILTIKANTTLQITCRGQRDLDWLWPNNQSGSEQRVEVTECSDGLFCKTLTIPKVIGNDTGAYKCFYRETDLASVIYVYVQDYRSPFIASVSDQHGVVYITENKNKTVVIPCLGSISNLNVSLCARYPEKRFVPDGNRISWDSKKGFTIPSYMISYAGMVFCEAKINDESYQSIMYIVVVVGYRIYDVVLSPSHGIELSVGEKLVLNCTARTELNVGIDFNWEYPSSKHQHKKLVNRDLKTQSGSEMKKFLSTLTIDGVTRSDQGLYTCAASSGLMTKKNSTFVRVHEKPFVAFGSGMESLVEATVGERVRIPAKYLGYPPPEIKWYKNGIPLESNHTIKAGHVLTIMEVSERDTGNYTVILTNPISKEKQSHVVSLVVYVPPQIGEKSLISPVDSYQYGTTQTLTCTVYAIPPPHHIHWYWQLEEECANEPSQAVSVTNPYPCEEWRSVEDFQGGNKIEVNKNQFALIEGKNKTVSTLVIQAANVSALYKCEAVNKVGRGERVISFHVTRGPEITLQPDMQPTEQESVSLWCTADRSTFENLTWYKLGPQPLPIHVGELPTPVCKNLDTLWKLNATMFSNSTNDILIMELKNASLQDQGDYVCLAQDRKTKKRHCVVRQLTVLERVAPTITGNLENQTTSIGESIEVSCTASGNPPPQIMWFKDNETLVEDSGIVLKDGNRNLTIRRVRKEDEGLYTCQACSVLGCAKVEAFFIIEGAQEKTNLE

The target of one assay is T1, Flk-1-Fc (mouse vascular endothelial growth factor receptor-2 Fc chimera) (mouse, UniProt P35918 20-762).
T1 construct: Purchased from R&D Systems; also called mouse VEGF-R2-Fc; not shown: Fc part of the purchased chimera
The experiment in a line: method not given.
With B1, the Kd (in general, the equilibrium constant for the complex coming apart) is greater than 3000 nM.

The next assay addresses T2, human vascular endothelial growth factor receptor-2 Fc chimera (KDR-Fc) (human, UniProt P35968 20-764).
T2 construct: range 1-764; Purchased from R&D Systems; also called hKDR; human VEGF-R2-Fc; not shown: human IgG1 Fc
The experiment in a line: radioactive equilibrium binding, 1 nM KDR-Fc. The protocol: (§1) To prepare ³⁵S-labeled binding proteins for analysis, mRNA was prepared as described above for RNA-protein fusion production but the linker ligation step was omitted. The mRNA was expressed using rabbit reticulocyte lysate translation kit (Ambion) in the presence of ³⁵S-labeled Met at 30° C. for 1 hour. Expressed protein was purified on M2-agarose Flag beads (Sigma) as described above. This procedure produced the encoded protein without the nucleic acid tail. In a direct binding assay, VEGF-R2-Fc fusions in concentrations ranging from 0 to 200 nM were added to a constant concentration of the purified protein (0.2 or 0.5 nM) and incubated at 30° C. for 1 hour in buffer B. The receptor-binder complexes were captured using Protein A magnetic beads for another 10 minutes at room temperature using a Kingfisher™ The beads were washed with six reaction volumes of buffer B. The protein was eluted from the beads with 100 μL of 0.1 M KOH. 50 μL of the reaction mixture and elution were dried onto a LumaPlate-96 (Packard) and the amount of ³⁵S on the plate was measured using a TopCount NXT instrument (Packard). The amount of fibronectin-based scaffold protein bound to the target was estimated as a percent of radioactivity eluted from Protein A magnetic beads compare to radioactivity in the reaction mixture. Nonspecific binding of fibronectin-based scaffold proteins to the beads was determined by measuring binding in the absence of KDR-Fc and represented less than 1-2% of the input. Specific binding was obtained through subtraction of nonspecific binding from total binding. Data was analyzed using the GraphPad Prizm software (GraphPad Software, Inc, San Diego, Calif.), fitted using a one site, non-linear binding equation.
Consider B2, for which the “Binding to 1 nM KDR, %” value was determined as 11%.
Turning to B3, the “Binding to 1 nM KDR, %” value was found to be 10%.
In the case of B4, the “Binding to 1 nM KDR, %” value came out at 11%.
Turning to B5, the “Binding to 1 nM KDR, %” value stood at 10%.
Consider B6, for which the “Binding to 1 nM KDR, %” value was 12%.
The same measure, in the same setting: then B7, with 12%; and B8, with 10%.
For B9, the “Binding to 1 nM KDR, %” value came to 10%.
Consider B10, for which the “Binding to 1 nM KDR, %” value was 13%.
As to B11, the “Binding to 1 nM KDR, %” value came out at 12%.
As to B12, the “Binding to 1 nM KDR, %” value stood at 12%.
With B13, the “Binding to 1 nM KDR, %” value amounted to 11%.

For another assay, the target named is Flk-1-Fc (mouse vascular endothelial growth factor receptor-2 Fc chimera) (mouse) (UniProt P35918). The experiment in a line: radioactive equilibrium binding assay, % bound at 1 nM Flk-1-Fc.
Chain of Flk-1-Fc (mouse vascular endothelial growth factor receptor-2 Fc chimera) (mouse) (P35918 20-762, change not shown): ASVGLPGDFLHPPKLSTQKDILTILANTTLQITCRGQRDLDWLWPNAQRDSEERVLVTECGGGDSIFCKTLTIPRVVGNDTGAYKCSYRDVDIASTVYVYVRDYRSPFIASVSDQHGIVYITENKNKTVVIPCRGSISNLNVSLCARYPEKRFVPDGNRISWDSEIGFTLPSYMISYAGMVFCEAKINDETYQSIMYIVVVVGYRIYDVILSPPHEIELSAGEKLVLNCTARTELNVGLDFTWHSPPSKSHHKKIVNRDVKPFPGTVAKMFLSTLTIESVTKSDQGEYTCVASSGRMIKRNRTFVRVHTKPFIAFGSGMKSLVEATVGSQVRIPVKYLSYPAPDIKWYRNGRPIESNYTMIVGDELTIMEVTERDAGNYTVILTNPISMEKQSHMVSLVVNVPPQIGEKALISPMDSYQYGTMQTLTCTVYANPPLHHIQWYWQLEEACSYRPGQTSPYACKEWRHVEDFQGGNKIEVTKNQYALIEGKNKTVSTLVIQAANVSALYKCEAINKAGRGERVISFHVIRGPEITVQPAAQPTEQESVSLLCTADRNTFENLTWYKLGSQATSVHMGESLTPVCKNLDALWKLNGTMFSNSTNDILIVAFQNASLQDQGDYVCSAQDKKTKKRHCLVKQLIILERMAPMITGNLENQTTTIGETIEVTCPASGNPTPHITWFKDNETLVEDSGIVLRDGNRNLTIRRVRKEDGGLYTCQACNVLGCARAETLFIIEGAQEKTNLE
As for B14, the Binding to 1 nM Flk-1, % was determined as 1%.

A further assay has as its target T3, Flk-1-Fc (mouse vascular endothelial growth factor receptor-2 Fc chimera) (mouse, UniProt P35918 20-762).
T3 construct: Bought from R&D Systems; also called mouse VEGFR-2-Fc; Fc part of the bought chimera not given
The description is as above. The protocol:
as §1
In the case of B15, the “Binding to 1 nM Flk-1, %” value amounted to 21%.
On the same count and under the same terms, to B16 belongs 2%; to B17, 21%.
With B18, the “Binding to 1 nM Flk-1, %” value is 1%.
